From US20200023071A1 (INNATE PHARMA, published 2020)

B1: chimeric antibody 19E9 (human IgG1 constant regions) conjugated to a PBD dimer, DAR about 2 (antibody, V domains shown)
VH: DVQLQESGPGLVKPSQSLSLTCTVTGYSITSDYAWNWIRQFPGNKLEWMGFVSYSGTTKYNPSLKSRISITRDTSENQFFLQLNSVTSEDTATYYCARGYGFDYWGQGTTLTVSS
VL: EIVLTQSPTTMAASPGEKITITCSATSSISSIYFHWYQQRPGFSPKLLIYRTSNLASGVPARFSGSGSGTSYSLTIGTMEAEDVATYYCQQGTTIPFTFGSGTKLEIK
modifications: PBD dimer via NH2-PEG-N3 / DBCO-val-ala linker on Q295 (Kabat EU numbering) of each heavy chain constant region
B2: chimeric antibody 9C10 (human IgG1 constant regions) conjugated to a PBD dimer, DAR about 2 (antibody, V domains shown)
VH: QVQLQQPGAELVRPGTSVNLSCKASGYSFTRYWMNWVKQRPGQGLEWIGMIHPSDSETRLNQKFKDKATLTVDKSSSTAYMQLSSPTSEDSAVYYCGYGNFFYVMDYWGQGTSVTVSS
VL: DILLTQSPAILSVSPGERVSFSCRASQSIGTSIHWYQQRTNGSPRLLIKFASESISGIPSRFSGSGSGTDFTLNINSVESEDIADYYCQQSNFWPFTFGSGTKLEVK
modifications: PBD dimer via NH2-PEG-N3 / DBCO-val-ala linker on Q295 (Kabat EU numbering) of each heavy chain constant region
B3: chimeric antibody 18E8 (human IgG1 constant regions) conjugated to a PBD dimer, DAR about 2 (antibody, V domains shown)
VH: DVQLQESGPDLVNPSQSLSLICTVTGYSITSDYSWHWIRQFPGNKLEWMGNIHYSGRINYNPSLRSRISITRDTSKNQFFLQLISVTTEDTATYYCATRRTFGNFEDYWGQGTTLTVSS
VL: QIVLSQSPATLSVSPGEKVTMTCRSSSSVNYMHWYQQKPGSSPKPWIYATSTLASGVPARFSGSGSGTSYSLTISRVEAEDAATYYCQQWSSNPLTFGAGTKLELK
modifications: PBD dimer via NH2-PEG-N3 / DBCO-val-ala linker on Q295 (Kabat EU numbering) of each heavy chain constant region
B4: chimeric antibody 6E4 (human IgG1 constant regions) conjugated to a PBD dimer, DAR about 2 (antibody, V domains shown)
VH: EVQLVESGGALVKPGGSLKLSCAASGFTFSYYAMSWVRQTPEKRLEWVATISRGGNYIYYTDSVKGRFTISRDNAKNTLYLQMTSLRSEDTAMFYCASISDYDGAWLAYWGQGTLVTV
VL: DVLMTQTPLSLPVSLGDQASISCRSSQSIIHTNGNTYLEWYLQKPGQSPKLLIYKISNRFSGVPDRFSGSGSGTDFTLKISRVEAEDLGVYYCFQGSHVPWTFGGGTKLEIK
modifications: PBD dimer via NH2-PEG-N3 / DBCO-val-ala linker on Q295 (Kabat EU numbering) of each heavy chain constant region

target: T1, human MICA endogenously expressed on the surface of HCT116 colon carcinoma cells (human, UniProt Q29983 24-383); assay: cell-based or functional assay
T1 sequence (looked up): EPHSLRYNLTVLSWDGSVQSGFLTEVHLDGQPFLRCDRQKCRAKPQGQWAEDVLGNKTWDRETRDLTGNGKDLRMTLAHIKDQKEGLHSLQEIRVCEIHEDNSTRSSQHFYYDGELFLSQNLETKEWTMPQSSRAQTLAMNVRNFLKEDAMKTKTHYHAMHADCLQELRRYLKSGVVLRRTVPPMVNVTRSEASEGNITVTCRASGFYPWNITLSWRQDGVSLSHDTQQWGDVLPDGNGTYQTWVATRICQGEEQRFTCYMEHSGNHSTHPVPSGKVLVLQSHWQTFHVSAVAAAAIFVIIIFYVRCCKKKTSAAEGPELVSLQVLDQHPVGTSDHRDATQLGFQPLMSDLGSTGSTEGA

Row | Binder | EC50 (also referred to as IC50) of cytotoxicity towards HCT116 cells, cell confluence over one week (IncuCyte) [ng/mL]
1 | B1 | 0.475
2 | B2 | 7.77
3 | B3 | 3.77
4 | B4 | 2.25
